Values of other authors as cited in patent US20130064803A1, “BIO-REPLENISHMENT (BioRep) FOR COGNITIVE HEALTH” (Naidu LP, priority 2011, published 2013).

Conditions: intravenous infusion

B1: LF: 80-kD heparan- and metal-binding glycoprotein, member of the transferrin super-family (protein, UniProt P02788 20-710, looked up)
Lactotransferrin: GRRRSVQWCAVSQPEATKCFQWQRNMRKVRGPPVSCIKRDSPIQCIQAIAENRADAVTLDGGFIYEAGLAPYKLRPVAAEVYGTERQPRTHYYAVAVVKKGGSFQLNELQGLKSCHTGLRRTAGWNVPIGTLRPFLNWTGPPEPIEAAVARFFSASCVPGADKGQFPNLCRLCAGTGENKCAFSSQEPYFSYSGAFKCLRDGAGDVAFIRESTVFEDLSDEAERDEYELLCPDNTRKPVDKFKDCHLARVPSHAVVARSVNGKEDAIWNLLRQAQEKFGKDKSPKFQLFGSPSGQKDLLFKDSAIGFSRVPPRIDSGLYLGSGYFTAIQNLRKSEEEVAARRARVVWCAVGEQELRKCNQWSGLSEGSVTCSSASTTEDCIALVLKGEADAMSLDGGYVYTAGKCGLVPVLAENYKSQQSSDPDPNCVDRPVEGYLAVAVVRRSDTSLTWNSVKGKKSCHTAVDRTAGWNIPMGLLFNQTGSCKFDEYFSQSCAPGSDPRSNLCALCIGDEQGENKCVPNSNERYYGYTGAFRCLAENAGDVAFVKDVTVLQNTDGNNNEAWAKDLKLADFALLCLDGKRKPVTEARSCHLAMAPNHAVVSRMDKVERLKQVLLHQQAKFGRNGSDCPDKFCLFQSETKNLLFNDNTECLARLHGKTTYEKYLGPQYVAGITNLKKCSTSPLLEACEFLRK
- time to reach the cerebrospinal fluid: ≤ 30 min
